Values belong to the binder of their own block, whether it stands above or below them.
Assays:
Test in all cases: SPR
[1] = target: T1, recombinant human IFNα14 (human, UniProt P01570 24-189)
T1 chain: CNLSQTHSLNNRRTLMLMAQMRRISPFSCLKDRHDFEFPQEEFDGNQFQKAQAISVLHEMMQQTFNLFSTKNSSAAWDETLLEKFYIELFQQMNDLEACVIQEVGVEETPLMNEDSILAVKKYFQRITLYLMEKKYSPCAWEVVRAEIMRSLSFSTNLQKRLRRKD

[2] = target: T2, recombinant human IFNα4 (human, UniProt P05014 24-189)
T2 chain: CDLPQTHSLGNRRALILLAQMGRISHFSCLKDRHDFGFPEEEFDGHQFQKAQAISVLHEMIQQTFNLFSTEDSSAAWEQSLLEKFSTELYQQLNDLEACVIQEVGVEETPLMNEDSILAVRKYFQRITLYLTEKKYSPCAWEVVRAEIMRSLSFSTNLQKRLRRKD

[3] = target: recombinant human IFNω (human, UniProt P05000 22-195)
recombinant human IFNω, sequence (P05000 22-195): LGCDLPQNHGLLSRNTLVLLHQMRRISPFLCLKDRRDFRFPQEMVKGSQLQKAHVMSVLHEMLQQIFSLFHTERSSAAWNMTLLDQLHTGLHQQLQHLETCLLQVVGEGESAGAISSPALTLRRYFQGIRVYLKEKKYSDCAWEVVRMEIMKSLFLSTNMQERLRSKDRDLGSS

Kd [1]: 0.0611 pM | Kd [2]: 0.263 pM
B1: 19D11, APS1/APECED patient-derived anti-IFN monoclonal antibody (antibody, V domains shown)
VH: QVQLVQSGAEVKRPGSSVRVSCRASGDTFSSYPISWVRQAPGQGLEWMGRILPALGVTNYAQNFRGRITITADKSPLTAYLELSSLRFEDTAVYYCASPSADIIPSILGTTLFAFWGQGSLVTVSS
VL: EIVLTQSPGTLSLSPGEGATLSCRASQNVSRHYLTWYQQKPGQSPRLLIYGGSSRATGVPDRFSGGGSGTDFTLTISRLEPEDFAVFYCQSYHSPPPVYTFGQGTKVEIK

Kd [3]: 0.125 pM | Kd [2]: 0.0375 pM
B2: 26B9, APS1/APECED patient-derived anti-IFN monoclonal antibody (antibody, V domains shown)
VH: QILLQESGPGLVKPTETLSLTCSVSGDSISDSSHYWAWIRQPPGKGPEWIGSVYFSSMTHYNPSLKSRVSISVDKPKNQFSLKVTSVTVADTATYYCARQALARVGAMNWFDPWGQGSLVTVSS
VL: DIIMTQSPDSLPVSLGEGVTINCKSSQSVFFTSSNKSCLAWYQQKPGKSPKLLIYWASTRQSGVPDRFRGSGSGTDFSLTITSLQAEDVAVYFCQQCQTSPPTFGGGTRLEIK

Source: PMC4967814 (2016)
